Legend:
[1] = target: Glycymeris yessoensis lectin (GYL) (Glycymeris yessoensis); assay: SDS-PAGE without and with DTT; 15% separation gel, in the absence and presence of 10 mM DTT; disulfide-linked (covalent) dimer to subunits
[2] = target: Glycymeris yessoensis lectin (GYL) (Glycymeris yessoensis); assay: MALDI-TOF mass spectrometry; Ultraflex III MALDI-TOF/TOF; singly charged ions of the subunit and of the subunit dimer

stoichiometry N [1]: 2 | stoichiometry N [2]: 2
Substance: Glycymeris yessoensis lectin (GYL) (natural protein)

From PMC8466245
